Experimental findings from article PMC6376114, “The Y. bercovieri Anbu crystal structure sheds light on the evolution of highly (pseudo)symmetric multimers” (Journal of molecular biology, 2017) are described below.

The target in assay [1] is T1, YbATP-grasp (Yersinia bercovieri, UniProt A0ABP2E091).
T1 construct: gene yberc0001_40; N-terminally His-tagged (pQLinkH), E. coli ER2566 host; 780 kDa, 14-mer by sedimentation equilibrium; gene from the four-gene Anbu operon (ATP-grasp, alphaE, transglutaminase, Anbu)
T1 sequence (A0ABP2E091 1-478): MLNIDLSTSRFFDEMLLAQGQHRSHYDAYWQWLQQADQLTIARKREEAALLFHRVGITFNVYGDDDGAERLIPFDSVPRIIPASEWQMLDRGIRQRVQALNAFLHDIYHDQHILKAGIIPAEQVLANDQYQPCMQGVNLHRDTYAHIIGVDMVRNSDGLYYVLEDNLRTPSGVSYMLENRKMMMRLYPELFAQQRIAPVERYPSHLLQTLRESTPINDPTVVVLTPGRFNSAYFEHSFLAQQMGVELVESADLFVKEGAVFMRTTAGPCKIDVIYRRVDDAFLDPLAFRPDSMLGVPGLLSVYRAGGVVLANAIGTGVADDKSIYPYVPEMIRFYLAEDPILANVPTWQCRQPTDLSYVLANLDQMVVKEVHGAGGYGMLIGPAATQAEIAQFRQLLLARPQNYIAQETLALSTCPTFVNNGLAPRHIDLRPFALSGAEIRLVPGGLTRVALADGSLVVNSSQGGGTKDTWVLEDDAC
Put plainly: […]-orthophosphate release, thin-layer chromatography and autoradiography. The settings on record: 50 mM Tris pH 7.5, 150 mM KCl, 5 mM MgCl2, 1 mM ATP, RT; labelled compound. The class given is biochemical.

For assay [2], the target named is T1, YbATP-grasp. Put plainly: differential scanning fluorimetry (thermofluor). The settings on record: strong destabilization in presence of ATP; shift size not given. The assay is classed as binding. Background: DSF heats the sample and reads unfolding from a dye or from intrinsic fluorescence.
Assay [3] addresses Yersinia bercovieri Anbu (ancestral beta subunit), V14A/G107H variant (Yersinia bercovieri). Put plainly: AUC; sedimentation equilibrium of YbAnbu at 4000, 7000 and 9000 rpm, buffer B in the reference sector, global fit (SEDPHAT).
Assay [4] has the same target. Put plainly: AUC; sedimentation velocity, 40,000 rpm, 20 °C, buffer D, continuous c(s) distribution model (SEDFIT).
Assay [5] shares this target. Put plainly: crystal structure; sitting drop vapor diffusion, 100 mM BIS-TRIS propane/HCl pH 6.7-7.1, 200 mM Na2SO4, 18% PEG 3350, 7.5% ethylene glycol; space group P21, 2.5 Å, two 14-mers in the asymmetric unit.
The target is the same in assay [6]. Put plainly: SEC; Superose 6 30/100 column, 0.5 ml/min, buffer D (50 mM Tris pH 7.5, 300 NaCl, 1 mM EDTA); calibrated with BioRad standards, yeast 20S and EcHslV. (In general: SEC sorts molecules by how far they enter the pores of the column.)
Assay [7] deals with ATP-grasp protein encoded in the Y. bercovieri Anbu operon, N-terminally His-tagged (Yersinia bercovieri). In words: AUC; sedimentation equilibrium of YbATP-grasp at 4000, 7000 and 9000 rpm, buffer D in the reference sector, global fit (SEDPHAT).

Values joined by “and” are separate entries in the source; they are usually repeats but may differ in a detail not shown here. Equal entries are not always repeated.

The term stoichiometry N denotes the number of molecules, sites or subunits per partner or assembly.

Consider `Nc1ncnc2c1ncn2[C@@H]1O[C@H](COP(=O)(O)OP(=O)(O)OP(=O)(O)O)[C@@H](O)[C@H]1O` [ATP], for which the “32P-orthophosphate release, thin-layer chromatography and autoradiography” value at YbATP-grasp [1] was “The YbATP-grasp protein led to robust production of orthophosphate”. Also, the “differential scanning fluorimetry (thermofluor)” value on YbATP-grasp [2] was “indicated strong destabilization of YbATP-grasp in the presence of ATP, but not ADP”.
Regarding “Yersinia bercovieri Anbu (ancestral beta subunit), V14A/G107H variant (natural protein)”, the stoichiometry N is 14 in assay [3]; 12 in assay [4]; 14 in assay [5]; 9 and 5 and 14 in assay [6].
“ATP-grasp protein encoded in the Y. bercovieri Anbu operon, N-terminally His-tagged (natural protein)”: the stoichiometry N in assay [7] amounted to 14.
